# ± gives the standard deviation.
# Assay: protein stability index of a GFP-peptide fusion (GPS, HEK-293T) (PSI 1-6); higher = more stable
# [1] = treatment: DMSO, c terminus: a fixed tail appended
# [2] = treatment: MLN4924 1 uM, 8 h, c terminus: a fixed tail appended
# [3] = treatment: DMSO, c terminus: native
# [4] = treatment: MLN4924 1 uM, 8 h, c terminus: native
# 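Further: 24-mer peptide tiles fused after GFP, lentivirally expressed, FACS-sorted into six equal bins by GFP/DsRed ratio, decoded by Illumina sequencing, PSI is the read-weighted mean bin number.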
Sequence,protein stability index [1],protein stability index [2],protein stability index [3],protein stability index [4]
SPPLSTEAHFMLQVADINDNPPTF [PCDHGA10],3.73 ± 0.17,3.9 ± 0.19,,
GWGDCVWLPYLYTLQGLYLVYHPV [DHCR7],3.81 ± 0.74,3.25 ± 0.55,,
NLEGNELQRHADEFLLDLGHHERS [FUT8],4.84 ± 0.062,4.83 ± 0.31,,
CHLFSTYVASHKIEKEEQEKKRKE [ACBD3],4.41 ± 0.41,4.43 ± 0.21,,
AKVDGETASDSESRAESAPLPVSA [CDS2],5.57 ± 0.15,5.5 ± 0.27,,
KHLNASNPTEPATIIFTAAREGRE [TOR1AIP2],4.13 ± 0.2,4.22 ± 0.27,,
ICNNKWFTDTSIILFLNKKDLFEE [GNAI1],3.06 ± 0.97,2.83 ± 0.45,,
MRDRHVNMHLNLRPFDCPVCNKKF [ZBTB22],2.99 ± 0.32,3.44 ± 0.55,,
TGEHREFKLDKKYQRPQDSEDMWG [FBF1],4.56 ± 0.23,4.55 ± 0.35,,
RGFAFVTFESPADAKDAARDMNGK [RBMX],4.12 ± 0.16,4.19 ± 0.26,,
LRYLSSIWNILDLVVILLSIVAVG [PKD2L1],2.66 ± 0.65,3.3 ± 0.32,,
QQYQEQLDKSTKLVETAIQSLDEP [TRIM63],5.1 ± 0.32,5.07 ± 0.086,,
EQQRIIAILLDAHHKTYDPTYSDF [VDR],2.48 ± 0.37,2.27 ± 0.15,,
CGRAFSRKSLLVVHQRTHTGEKPH [ZNF649],2.69 ± 0.26,2.64 ± 0.093,,
QNVRNHIHSCFSDVTCFLLPHPGL [ATL3],2.49 ± 0.65,2.29 ± 0.55,,
EKMKKRKMSNSFHGIRPPQLEQPE [RHOBTB3],4.65 ± 0.12,4.77 ± 0.14,,
GIVGLNNIKANDYANAVLQALSNV [USP39],2.25 ± 0.42,2.25 ± 0.45,,
ACPVCSKMVPRYDLNRHLDEMCAN [FAN1],2.6 ± 0.49,2.27 ± 0.17,,
SLRSIEQKYKLFQQQQLTFTAALE [SPACA9],2.6 ± 0.34,2.73 ± 0.35,,
AECFRIFDRNADGYIDPEELAEIF [TNNC2],5.32 ± 0.21,5.09 ± 0.15,,
QARQFRTFHHPTYGSCYTVDGVWT [SCNN1D],2.21 ± 0.19,2.3 ± 0.2,,
DHGCEQLCLNTEDSFVCQCSEGFL [MATN2],4.18 ± 0.21,4.06 ± 0.3,,
PEVEVQVKRRRTASLSNQECQLYP [SNURF],4.77 ± 0.2,4.84 ± 0.17,,

Sequence,protein stability index [1],protein stability index [2],protein stability index [3],protein stability index [4]
CRALRDPALDSLAYEYEREGLYEQ [TRADD],3.73 ± 0.34,3.63 ± 0.18,,
KMDMSVLEISGIIMSRVNAYQQGV [PHTF1],2.5 ± 0.54,2.48 ± 0.49,,
SVLKLHHSLQQSEPDLRHLVLVVN [SERTAD1],2.46 ± 0.24,2.04 ± 0.25,,
GVRSREDAQGSEMVTCKSEFYHDE [GAN],5.22 ± 0.12,5.08 ± 0.47,,
LRSAGVEQLMYIKEDLIIPHHHSF [FAM50A],2.38 ± 0.35,2.37 ± 0.25,,
APRTSSCAERLQSEEQVSKNLFGP [FCHO1],4.21 ± 0.17,4.17 ± 0.31,,
KLPSRRQPGLLHLQSCGDLHTFTP [FAM189A2],4.92 ± 0.19,4.94 ± 0.15,,
EELLYDYGDRSKASIEAHPWLKH [KMT5A],,,4.9 ± 0.39,4.83 ± 0.28
AAPEGKRSLANGPNAGEQPGQVAG [EID1],5.44 ± 0.38,5.22 ± 0.16,,
KVPFSQEIKDLILPKISDPNFVKD [PI4K2A],3.56 ± 0.24,3.56 ± 0.28,,
VELPCRISPGKNATGMEVGWYRPP [MOG],2.33 ± 0.091,2.32 ± 0.28,,
QSQLICILKRRSDEALERCQILEL [CCDC89],2.52 ± 0.14,2.04 ± 0.44,,
THALAEWASRREAFAQRPSSAPDL [CDC25B],3.91 ± 0.26,4.01 ± 0.082,,
EQEIQFEDFTNTLRELGHAEHEIT [PKD2L1],5.16 ± 0.2,5.17 ± 0.32,,
FADEKNILHIMVKVVKGHRPELPP [RIPK4],2.3 ± 0.32,2.36 ± 0.36,,
GPDDSLWDKHACPAYVGPEILSSR [TRIB3],3.56 ± 0.25,3.54 ± 0.33,,
TLEQEQEALVNRLWKRMDKLEAEK [CCDC6],4.42 ± 0.22,4.52 ± 0.17,,
FMRTDPVCQKLLLDAMNYHLMPFR [KLHL14],2.25 ± 0.19,2.28 ± 0.3,,
MFGFFFGRTPLIKLSPKKTWEGFI [CDS2],2.38 ± 0.48,2.35 ± 0.49,,
QTWNNSTWSNQTQNIQSWSNHSWN [NANOGP8],2.36 ± 0.24,2.46 ± 0.28,,
FIMLLIGIVLPVFYLVYFKIQASG [LYSMD4],2.31 ± 0.22,2.01 ± 0.54,,
RQAVAWLVAMHKAAKLLYESRDQ [ZFYVE21],,,2.95 ± 1.1,2.28 ± 0.3
SVMFRKWRDSKGKDKEYAEIIRKQ [UBE2R2],2.98 ± 0.28,2.99 ± 0.18,,

Sequence,protein stability index [1],protein stability index [2],protein stability index [3],protein stability index [4]
GPHPKSKIENGYPLHAPEAYFPYF [CDC14A],2.53 ± 0.21,2.69 ± 0.13,,
EVQGDQQAWFGFAGTPGYLSPEVL [CAMK2B],3.07 ± 0.35,3.14 ± 0.21,,
ESTRELGELLGEARYYLVQGLIED [KCTD13],2.88 ± 0.19,2.91 ± 0.31,,
ASQSLGSPMYFFLASLSFIDTVYS [OR4A15],2.89 ± 0.57,2.67 ± 0.96,,
GPFGVNHGVELHSDVIEYAKQKLD [PCMTD2],3.94 ± 0.6,4.28 ± 0.25,,
FEWTDSPNTAVSVHVSESSDDDEE [ACBD3],5.53 ± 0.22,5.56 ± 0.21,,
VTSQQEPQIPVDRGSETTYESSAD [TAF7L],5.21 ± 0.25,5.52 ± 0.23,,
LRAVEQAMGHSQDRLTTFQENQAR [LRRC45],4.48 ± 0.23,4.34 ± 0.22,,
LPESLARSLLPSTEYQKQLLAAQV [FBF1],2.75 ± 0.46,2.56 ± 0.26,,
PNPPTLQEAGLSHTEVLFVQDLTD [FAF2],4.54 ± 0.27,4.64 ± 0.16,,
GSQPNSGLALESSSGLQDVTGPDN [NFE2L1],5.45 ± 0.21,5.44 ± 0.3,,
STSEDSLVKQECIKEVVEKREACH [FAN1],5.52 ± 0.22,5.23 ± 0.092,,
MKRQNVRTLSLIVCTFTYLLVGAA [KCNK9],3.36 ± 0.22,2.95 ± 0.37,,
NNQEEETEFKELDGLREALANLRG [CCDC89],4.71 ± 0.29,4.58 ± 0.4,,
GERPRSEEDNELNLPNLAAAYSSI [GCH1],4.71 ± 0.3,4.75 ± 0.075,,
DRTFTLKTVLMIAIQLLSRMEYVH [CSNK1G1],3.15 ± 0.067,2.65 ± 1.1,,
DVMLVECYDPKGDQWNILQTPILE [KLHL14],2.55 ± 0.36,2.64 ± 0.38,,
LAEYQDLTFLTKQEILLAHRRFCE [CIB1],2.3 ± 0.1,2.54 ± 0.38,,
YDRVAQLDQLLHYRKKSAEFPDFY [CHGB],2.72 ± 0.14,2.8 ± 0.21,,
MCPPVSMRYEEEGMSYLYASWMYQ [TEX19],2.3 ± 0.082,2.11 ± 0.22,,
ENGYGFHLNAIRGLPGSFIKEVQK [PDZK1],2.62 ± 0.18,2.97 ± 0.43,,
QGEEPWVQVSPEFKDSAGKSPTGL [ZNF75A],4.87 ± 0.22,5.04 ± 0.22,,
IAHRGERRGIGGIFFDDLDSPSKE [CPOX],4.57 ± 0.4,4.72 ± 0.21,,

Sequence,protein stability index [1],protein stability index [2],protein stability index [3],protein stability index [4]
LHVNPKKQTIGNSCKACGYRGMLD [EIF5],2.35 ± 0.29,2.44 ± 0.64,,
IKKKGWRRSSLVITTKIFWGGKAE [KCNAB2],2.51 ± 0.55,2.75 ± 0.64,,
TKLRLERVKFRRQEANARERNRMH [NEUROD6],3.67 ± 0.14,3.92 ± 0.4,,
ISVLAFSVCFIFTITIGMFPAVTV [SLC29A1],2.96 ± 0.13,2.92 ± 0.32,,
GGEGVEVELLHNTSYTRQACLVSC [SCNN1D],2.9 ± 0.2,2.55 ± 0.31,,
QTEKTTRVRTVLNEKQLHTLRTCY [ISL2],2.66 ± 0.24,2.8 ± 0.33,,
EDNLEDDDVEMKNGITQGDKLRAL [CDC14A],5.44 ± 0.26,5.38 ± 0.12,,
LGANEVLLVVGGFGSQQSPIDVVE [KLHL12],2.27 ± 0.28,2.25 ± 0.85,,
IREDEVHRLGSPYGHCTAGGEGVE [SCNN1D],4.8 ± 0.26,4.85 ± 0.11,,
TGHGVSRGPSPVVLGSQDALPIAT [FCHO1],4.17 ± 0.14,4.14 ± 0.045,,
HSGEKPFICKECGKAYGWCSELIR [ZNF232],2.22 ± 0.25,2.72 ± 0.66,,
LSFEQMTDAHVWNKSVTLYTVKDK [NLN],2.61 ± 0.61,3.09 ± 0.63,,
PEYREWNPELIKPKKLLNPVKASR [FAM107A],3.89 ± 0.13,4.09 ± 0.39,,
PVNPELTAGPITGLVYRLNRFRVE [TRIM43],2.71 ± 0.29,2.85 ± 0.33,,
KTAATRYRQKKRAEQEALTGECKE [ATF4],4.95 ± 0.16,5.1 ± 0.094,,
SAAVPAGQTYVDAGYEVDKIAQNL [CHIT1],4.39 ± 0.3,4.61 ± 0.46,,
KGKFSTDTKGKPTSRTQVYKPPAL [ZC2HC1A],3.77 ± 0.19,3.8 ± 0.15,,
KENAAAPSPVRAPAPSPAKEERKT [PALM],5.45 ± 0.24,5.53 ± 0.23,,
DDGIKVVKVTFNKQDSLVILTIMA [TMEM106C],2.71 ± 1,3.11 ± 1,,
ALAVKAGHGYDSKKQQELTAAVLG [ZBED1],3.82 ± 0.24,3.87 ± 0.25,,
